{"source": "paper PMC11070850", "origin": "cited, not measured here", "biological_target": "mucin 1 (UniProt P15941)", "sequence (P15941 24-1158)": "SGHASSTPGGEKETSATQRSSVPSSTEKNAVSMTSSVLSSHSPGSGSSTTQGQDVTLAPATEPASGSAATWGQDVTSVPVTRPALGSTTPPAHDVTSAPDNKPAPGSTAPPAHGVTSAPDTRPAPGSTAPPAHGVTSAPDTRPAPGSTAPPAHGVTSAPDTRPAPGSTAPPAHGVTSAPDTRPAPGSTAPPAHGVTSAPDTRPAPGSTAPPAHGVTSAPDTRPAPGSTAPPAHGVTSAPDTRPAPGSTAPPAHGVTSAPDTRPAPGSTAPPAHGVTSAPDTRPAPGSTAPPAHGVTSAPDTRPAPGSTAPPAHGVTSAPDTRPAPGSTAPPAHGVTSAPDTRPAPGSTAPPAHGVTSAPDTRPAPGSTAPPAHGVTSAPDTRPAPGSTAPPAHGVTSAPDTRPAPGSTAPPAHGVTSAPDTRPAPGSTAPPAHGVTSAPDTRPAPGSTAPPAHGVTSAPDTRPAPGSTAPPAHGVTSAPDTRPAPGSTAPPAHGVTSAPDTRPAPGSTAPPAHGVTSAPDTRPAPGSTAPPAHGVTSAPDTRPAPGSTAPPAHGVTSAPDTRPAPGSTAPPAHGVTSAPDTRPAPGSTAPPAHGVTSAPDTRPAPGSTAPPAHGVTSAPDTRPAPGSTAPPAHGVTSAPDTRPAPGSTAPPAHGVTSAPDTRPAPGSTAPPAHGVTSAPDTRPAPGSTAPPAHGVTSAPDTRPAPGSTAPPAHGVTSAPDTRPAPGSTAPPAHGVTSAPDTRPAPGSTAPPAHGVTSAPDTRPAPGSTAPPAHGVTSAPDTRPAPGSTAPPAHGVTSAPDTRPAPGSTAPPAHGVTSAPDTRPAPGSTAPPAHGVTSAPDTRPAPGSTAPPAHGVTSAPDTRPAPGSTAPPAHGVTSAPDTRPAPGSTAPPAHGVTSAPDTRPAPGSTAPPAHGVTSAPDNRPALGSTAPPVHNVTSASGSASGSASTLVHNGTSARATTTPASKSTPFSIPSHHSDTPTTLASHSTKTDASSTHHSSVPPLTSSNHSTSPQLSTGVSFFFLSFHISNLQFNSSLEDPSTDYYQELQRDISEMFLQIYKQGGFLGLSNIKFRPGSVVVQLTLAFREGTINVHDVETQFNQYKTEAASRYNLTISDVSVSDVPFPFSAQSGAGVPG", "settings": "10 mM MOPS, 100 mM NaNO3, pH 7.6, room temperature, 60 min (aptamer + mucin 1 + DNA nanospheres); then CuSO4 50 min and calcein 2 min"}
{"sequence": "GCAGTTGATCCTTTGGATACCCTGG [mucin 1 aptamer]", "values": [{"measurement": "Kd", "value": 0.135, "unit": "nM"}]}
